What was measured:
m^7GTP-CBC [1] = target: T1, m^7GTP-CBC (Homo sapiens, UniProt P52298+Q09161); assay: Fluorescence polarisation with FAM-labelled C-terminal peptides; format: binding; settings: competition; 40 nM FAM peptide, 60 nM CBC, 25 µM m^7GTP, 25 °C; n = 3
T1 construct: 6-histidine tag (pETM30 vector) (N, cleaved yes); made in house; host or cells: CBP20 in E. coli Rosetta 2; CBP80ΔNLS in High Five insect cells; heterodimer reconstituted on Ni-sepharose
T1 sequence (Q09161 20-790): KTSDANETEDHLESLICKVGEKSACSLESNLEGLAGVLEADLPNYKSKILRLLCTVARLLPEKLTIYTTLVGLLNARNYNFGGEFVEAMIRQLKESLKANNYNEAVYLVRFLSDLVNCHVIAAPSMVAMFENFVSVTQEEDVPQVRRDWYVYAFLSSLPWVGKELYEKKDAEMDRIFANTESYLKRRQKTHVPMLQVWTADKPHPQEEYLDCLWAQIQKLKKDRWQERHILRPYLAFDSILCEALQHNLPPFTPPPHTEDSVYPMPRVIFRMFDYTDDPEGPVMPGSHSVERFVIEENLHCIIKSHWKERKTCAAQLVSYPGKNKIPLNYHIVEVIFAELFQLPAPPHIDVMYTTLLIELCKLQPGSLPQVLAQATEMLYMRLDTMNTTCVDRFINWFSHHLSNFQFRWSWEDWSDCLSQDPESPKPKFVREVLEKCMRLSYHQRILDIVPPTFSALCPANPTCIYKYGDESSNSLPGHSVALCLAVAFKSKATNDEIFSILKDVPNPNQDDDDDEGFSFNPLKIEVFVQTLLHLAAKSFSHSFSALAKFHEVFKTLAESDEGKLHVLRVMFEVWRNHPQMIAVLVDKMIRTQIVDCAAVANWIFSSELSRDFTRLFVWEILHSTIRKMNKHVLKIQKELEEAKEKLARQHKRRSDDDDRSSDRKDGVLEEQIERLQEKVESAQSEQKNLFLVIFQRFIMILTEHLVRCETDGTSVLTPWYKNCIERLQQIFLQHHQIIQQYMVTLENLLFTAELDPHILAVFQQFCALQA
T1 sequence (P52298 1-156): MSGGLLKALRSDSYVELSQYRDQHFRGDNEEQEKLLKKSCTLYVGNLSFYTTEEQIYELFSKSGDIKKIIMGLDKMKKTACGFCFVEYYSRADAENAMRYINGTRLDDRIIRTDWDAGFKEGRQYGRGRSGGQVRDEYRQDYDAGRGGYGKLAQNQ
Description: Fig. 4 Incompatibility of ARS2-PHAX and NELF-E binding to CBC. a, b Competition on m^7GTP-sepharose. a In separate experiments, different amounts of ARS2^147–871 were added to preformed CBC–NELF–E complex immobilised on m^7GTP-sepharose. […] The fluorophore FAM is represented with a star. Note that different constructs of NELF-E and ARS2 were used in c, d, and e compared to f, g, and h and are therefore represented by slightly different shapes. Error bars show the SD of three experiments
Fluorescence anisotropy binding assays were performed with N-terminal FAM-labelled ARS2^845–871 and […] peptides. 40 nM peptides were titrated with increasing concentrations of proteins in 20 mM HEPES, pH 7.8, 120 mM NaCl, 2 mM tris(2-carboxyethyl)phosphine. For the competition assay CBC–ARS2 and CBC–NELF–E complexes were preformed in the presence of 25 µM m^7GTP using 40 nM ARS2^827–871(FAM) peptide together with 60 nM CBC and 40 nM NELF-E^354–380(FAM) peptide with 1 µM CBC. […] To observe a change in polarisation at reasonable protein concentrations, CBC and NELF-E^244–380 concentrations that saturate half of the FAM-labelled peptides were used to preform the individual complexes. Fluorescence polarisation was measured at 25 °C with a microplate reader (CLARIOstar BMG LABTECH) using an excitation wavelength of 495 nm and emission wavelength of 515 nm. For analysis the polarisation value for the peptide alone was subtracted from the measurements.

m^7GTP-CBC [2] = target: T1, m^7GTP-CBC; assay: ITC, binding to CBC in the presence of the cap analogue m^7GTP; settings: for Kd: ITC, 25 °C, 20 mM HEPES, 120 mM NaCl, 2 mM TCEP, pH 7.8, CBC bound to m^7GTP, mean ± SD of at least two independent experiments
From the text: (§1) hARS2 isoform-4 (871 residues, UniProt:Q9BXP5-4, also known as isoform-e, NP_001122326) constructs (residues 147–871, 147–845, 763–871, 763–845, 827–871) hNELF-E (NM_002904.5) (244–380, 244–360) and hPHAX (NM_032177.3) (1–394, 103–294, 103–308, 103–327) were cloned into pETM11 (EMBL). Full-length hNELF-E (1–380) was cloned into pFASTBac and CBP20 into pETM30. Primers used are given in Supplementary Table 2. All constructs were expressed in E. coli Rosetta 2 (Novagen), except full-length NELF-E and CBP80ΔNLS (CBP80 with residues 1–19 deleted[2]), which were expressed in High Five insect cells (Life Technology). Cells were harvested and lysed by sonication in lysis buffer containing 50 mM HEPES, pH 7.8, 300 mM NaCl, 10% (v/v) glycerol, 5 mM β-mercaptoethanol. Lysates were clarified by centrifugation and applied on an equilibrated Ni-sepharose column (GE Healthcare), washed with 20 mM imidazole in lysis buffer, and eluted with 300 mM imidazole in lysis buffer. While dialysing into 20 mM HEPES, pH 7.8, 120 mM NaCl, 10% (v/v) glycerol, 5 mM β-mercaptoethanol, the N-terminal 6-histidine-tag was cleaved with His-tagged Tobacco Etch Virus (TEV) protease overnight in a ratio 1:100 mg TEV per mg protein. The cleaved protein was further purified first on Ni-sepharose to remove TEV and then using an anion exchange column (HiTrap Q, GE Healthcare) followed if necessary by a Heparin column (GE Healthcare). In both cases a NaCl gradient from 50 to 800 mM in 20 mM HEPES 7.8, 0.5 mM tris(2-carboxyethyl)phosphine was used. To reconstitute the CBC heterodimer, cleared His-tagged CBP20 lysate was first immobilised on a Ni-sepharose column. After washing the column with lysis buffer, the cleared CBP80 lysate was applied to the column and further purification steps performed as described above. To remove the access of CBP20 the flow through of the Ni-column after TEV cleavage was loaded on an anion exchange column (HiTrap Q, GE Healthcare) and CBC eluted by a NaCl gradient as described above. In the text we refer to CBP80ΔNLS and CBP80ΔNLS-CBP20 as CBP80 and CBC, respectively. ARS2^845–871, NELF-E^354–380, and NELF-E^360–380 peptides, with or without FAM label at the N-terminus, were purchased from GenScript.

m^7GTP-CBCmut = assay: ITC, binding to mutated CBC in the presence of m^7GTP; set-up: species or system human; settings: 25 °C, pH 7.8, CBCmut = CBP20 Y50A + CBP80 Y461A/R610E/H651A, with m^7GTP, mean ± SD of 2 experiments
Description: For CBC, a triple mutant in CBP80 (Y461A/R610E/H651A) was combined with various mutations in CBP20 (Y50A, Y50A/Y89A, or Y50A/Y89A/D107R).
ITC experiments were performed on a MicroCal ITC200 system (Malvern). Proteins were dialyzed overnight in buffer 20 mM HEPES, 120 mM NaCl, 2 mM tris(2-carboxyethyl)phosphine, pH 7.8. Injections of 1.5 µl protein A were added at an interval of 120–180 s into 205 µl of protein B in the cell, with a stirring speed of 800 rpm at 25 °C. The experimental data were analysed with MicroCal ITC Origin and were fitted to a single-site binding equation.

CBC = target: T2, CBC (Homo sapiens, UniProt P52298); assay: ITC, binding to CBC without cap analogue; settings: ITC (MicroCal ITC200), 25 °C, 20 mM HEPES, 120 mM NaCl, 2 mM TCEP, pH 7.8, single-site fit; no cap analogue pre-bound; mean ± SD of at least two independent experiments; SD
T2 sequence (P52298 1-156): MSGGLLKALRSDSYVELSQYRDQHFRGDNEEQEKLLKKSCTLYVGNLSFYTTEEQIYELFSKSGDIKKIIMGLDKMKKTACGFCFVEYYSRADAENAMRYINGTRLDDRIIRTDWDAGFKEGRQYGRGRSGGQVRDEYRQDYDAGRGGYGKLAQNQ
T2 sequence (Q09161 20-790 partner): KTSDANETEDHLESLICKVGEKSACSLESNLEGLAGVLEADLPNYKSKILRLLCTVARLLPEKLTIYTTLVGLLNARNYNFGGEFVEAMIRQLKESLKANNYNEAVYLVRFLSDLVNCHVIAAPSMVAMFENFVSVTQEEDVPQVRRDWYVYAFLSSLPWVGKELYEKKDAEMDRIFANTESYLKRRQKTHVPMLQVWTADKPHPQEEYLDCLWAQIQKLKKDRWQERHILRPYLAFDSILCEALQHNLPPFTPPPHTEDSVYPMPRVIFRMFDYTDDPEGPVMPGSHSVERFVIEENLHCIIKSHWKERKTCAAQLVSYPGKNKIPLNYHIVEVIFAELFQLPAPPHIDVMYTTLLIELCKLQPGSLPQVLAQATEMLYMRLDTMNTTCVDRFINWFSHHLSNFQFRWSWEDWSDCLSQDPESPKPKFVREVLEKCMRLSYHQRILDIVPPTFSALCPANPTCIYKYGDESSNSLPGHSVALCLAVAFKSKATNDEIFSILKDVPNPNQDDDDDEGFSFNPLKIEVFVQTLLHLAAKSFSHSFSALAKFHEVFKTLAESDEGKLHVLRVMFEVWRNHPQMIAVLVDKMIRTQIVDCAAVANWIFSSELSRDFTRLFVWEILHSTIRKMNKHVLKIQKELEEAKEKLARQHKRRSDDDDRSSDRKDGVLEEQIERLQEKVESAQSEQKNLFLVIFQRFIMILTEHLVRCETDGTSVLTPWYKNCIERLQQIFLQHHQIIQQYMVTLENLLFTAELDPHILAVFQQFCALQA
From the text: as §1

B1: NELF-E 244–380: C-terminal human NELF-E fragment including the RRM domain, E. coli expressed (protein, UniProt P18615 244-380, looked up, fragment)
chain: GPFRRSDSFPERRAPRKGNTLYVYGEDMTPTLLRGAFSPFGNIIDLSMDPPRNCAFVTYEKMESADQAVAELNGTQVESVQLKVNIARKQPMLDAATGKSVWGSLAVQNSPKGCHRDKRTQIVYSDDVYKENLVDGF
Change of polarisation on titration to m^7GTP-CBC-ARS2^845–871(FAM) (m^7GTP-CBC [1]): decrease in polarisation
Kd (m^7GTP-CBC [2]): ~0.04 µM
Kd (m^7GTP-CBC [2]; SD): 0.05 ± 0.01 µM
Enhancement of the interaction with CBC when m^7GTP is bound (m^7GTP-CBC [2]; ratio of ITC K D without / with m^7GTP): eight times higher
K D (m^7GTP-CBCmut): completely abolished binding
Kd (CBC): 0.4 ± 0.2 µM
